Data reported in article PMC1762332, “Catalases Are NAD(P)H-Dependent Tellurite Reductases” (PLoS ONE, 2006).

B1: S. epidermidis CH catalase (product of the katA gene) expressed from plasmid pCAT (enzyme, Staphylococcus epidermidis CH, UniProt Q2PUJ9 1-504, looked up)
chain: MSKQDGKLTGLFGAPVSDRENSMTAGRRGPLLMQDVYYLEQISHFDREVIPERRMHAKGSGAFGTFTVTNDITQYTNAKIFSEVGKQTEMFARFSTVSGERGAADLERDIRGFALKFYTEDGNWDLVGNNTPVFFFRDPKLFISLNRAVKRDPRTNMRSAQNNWDFWTGLPEALHQVTILMSDRGMPKGFRNMHGFGSHTYSMYNDKGERVWVKYHFRTQQGIENYTDEEAAKIVGMDRDSSQRDLYNAIENGDYPKWKMYIQVMTEEQAKNHPDNPFDLTKVWYKKDYPLIEVGEFELNRNPENYFLDVEQAAFAPTNIVPGLDYSPDKMLQGRLFSYGDAQRYRLGVNHWQIPVNQPKGVGVENLCPFSRDGQMRFLDNNQGGGPHYYPNNQGIYESQPEHKKPPFPTDGDGYEYNYRQDDDNYFEQPGKLFRLQSEDAKERIFTNTANAMDGVSKDVKVRHIRHCYKADPEYGKGVAKALDIDINQIDLETNQDETYENFK
notes: catalase KatA of Staphylococcus epidermidis strain CH; The coding region was amplified with primers from the ATG to the stop codon; The 1,515 bp gene is deposited as GenBank DQ301862 and differs by 15 bp from its homolog SE1016 in strain ATCC12228; Cloned with the pBAD TOPO TA Expression Kit; also called S. epidermidis catalase; 60 kDa protein; source: E. coli Top10 carrying pCAT (pBAD vector), …
B2: bovine liver catalase (enzyme, UniProt P00432 1-527, looked up)
chain: MADNRDPASDQMKHWKEQRAAQKPDVLTTGGGNPVGDKLNSLTVGPRGPLLVQDVVFTDEMAHFDRERIPERVVHAKGAGAFGYFEVTHDITRYSKAKVFEHIGKRTPIAVRFSTVAGESGSADTVRDPRGFAVKFYTEDGNWDLVGNNTPIFFIRDALLFPSFIHSQKRNPQTHLKDPDMVWDFWSLRPESLHQVSFLFSDRGIPDGHRHMNGYGSHTFKLVNANGEAVYCKFHYKTDQGIKNLSVEDAARLAHEDPDYGLRDLFNAIATGNYPSWTLYIQVMTFSEAEIFPFNPFDLTKVWPHGDYPLIPVGKLVLNRNPVNYFAEVEQLAFDPSNMPPGIEPSPDKMLQGRLFAYPDTHRHRLGPNYLQIPVNCPYRARVANYQRDGPMCMMDNQGGAPNYYPNSFSAPEHQPSALEHRTHFSGDVQRFNSANDDNVTQVRTFYLKVLNEEQRKRLCENIAGHLKDAQLFIQKKAVKNFSDVHPEYGSRIQALLDKYNEEKPKNAVHTYVQHGSHLSAREKANL
notes: catalase (EC 1.11.1.6) from bovine liver, commercial purified enzyme; the legend calls it a tetramer of 255 kDa; also called bovine catalase; catalase (C-9322); source: bought: Sigma (C-9322), purified

Key:
[1] = target: the molecule itself; test: native gel or EMSA; crude extracts of E. coli Top10 (pCAT) on native 12% polyacrylamide gel, 40 mM Tris-glycine pH 8.3, 4°C; catalase found by H2O2 dismutase and tellurite reductase activity staining in situ
[2] = target: the molecule itself; test: native gel or EMSA; purified bovine liver catalase on native 12% polyacrylamide gel, 40 mM Tris-glycine pH 8.3, 4°C; band compared with a 244 kDa standard; dismutase and tellurite reductase activities stained in situ

Protein | stoichiometry N [1] | stoichiometry N [2]
B1 | 4 | –
B2 | – | 4
